{"source": "paper PMC11986143", "about": "(Nature Communications, 2025)", "biological_target": "integrin αvβ3 on bEnd.3 vesicles (mouse (endogenous in bEnd.3), UniProt P43406 31-1044; O54890 26-787)", "sequence (P43406 31-1044, chain 1 of 2)": "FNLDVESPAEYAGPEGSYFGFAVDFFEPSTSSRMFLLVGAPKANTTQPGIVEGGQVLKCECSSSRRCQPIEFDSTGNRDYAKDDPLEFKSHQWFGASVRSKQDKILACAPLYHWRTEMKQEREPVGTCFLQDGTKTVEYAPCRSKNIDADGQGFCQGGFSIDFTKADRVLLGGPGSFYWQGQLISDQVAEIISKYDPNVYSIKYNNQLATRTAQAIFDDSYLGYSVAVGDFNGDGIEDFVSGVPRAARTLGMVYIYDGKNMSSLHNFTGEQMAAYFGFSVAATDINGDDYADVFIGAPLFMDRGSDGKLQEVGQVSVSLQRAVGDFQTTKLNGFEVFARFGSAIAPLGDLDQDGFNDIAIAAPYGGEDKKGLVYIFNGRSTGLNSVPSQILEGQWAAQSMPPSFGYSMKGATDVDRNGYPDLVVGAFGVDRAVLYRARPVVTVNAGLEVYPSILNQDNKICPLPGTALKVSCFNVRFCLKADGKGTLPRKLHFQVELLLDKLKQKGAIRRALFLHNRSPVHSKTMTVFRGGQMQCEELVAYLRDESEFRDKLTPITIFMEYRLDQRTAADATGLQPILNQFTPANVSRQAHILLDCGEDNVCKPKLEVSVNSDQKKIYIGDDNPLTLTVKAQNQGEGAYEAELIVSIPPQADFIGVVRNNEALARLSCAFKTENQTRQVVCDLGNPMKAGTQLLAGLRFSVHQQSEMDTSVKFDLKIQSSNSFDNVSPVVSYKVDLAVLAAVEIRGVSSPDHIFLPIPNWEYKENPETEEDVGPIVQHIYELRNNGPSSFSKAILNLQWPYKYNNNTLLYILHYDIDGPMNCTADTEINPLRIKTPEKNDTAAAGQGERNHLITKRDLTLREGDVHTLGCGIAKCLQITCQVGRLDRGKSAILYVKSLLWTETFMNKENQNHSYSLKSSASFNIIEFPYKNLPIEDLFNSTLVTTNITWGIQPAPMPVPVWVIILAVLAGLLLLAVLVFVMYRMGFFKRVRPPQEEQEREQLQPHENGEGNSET", "sequence (O54890 26-787, chain 2 of 2)": "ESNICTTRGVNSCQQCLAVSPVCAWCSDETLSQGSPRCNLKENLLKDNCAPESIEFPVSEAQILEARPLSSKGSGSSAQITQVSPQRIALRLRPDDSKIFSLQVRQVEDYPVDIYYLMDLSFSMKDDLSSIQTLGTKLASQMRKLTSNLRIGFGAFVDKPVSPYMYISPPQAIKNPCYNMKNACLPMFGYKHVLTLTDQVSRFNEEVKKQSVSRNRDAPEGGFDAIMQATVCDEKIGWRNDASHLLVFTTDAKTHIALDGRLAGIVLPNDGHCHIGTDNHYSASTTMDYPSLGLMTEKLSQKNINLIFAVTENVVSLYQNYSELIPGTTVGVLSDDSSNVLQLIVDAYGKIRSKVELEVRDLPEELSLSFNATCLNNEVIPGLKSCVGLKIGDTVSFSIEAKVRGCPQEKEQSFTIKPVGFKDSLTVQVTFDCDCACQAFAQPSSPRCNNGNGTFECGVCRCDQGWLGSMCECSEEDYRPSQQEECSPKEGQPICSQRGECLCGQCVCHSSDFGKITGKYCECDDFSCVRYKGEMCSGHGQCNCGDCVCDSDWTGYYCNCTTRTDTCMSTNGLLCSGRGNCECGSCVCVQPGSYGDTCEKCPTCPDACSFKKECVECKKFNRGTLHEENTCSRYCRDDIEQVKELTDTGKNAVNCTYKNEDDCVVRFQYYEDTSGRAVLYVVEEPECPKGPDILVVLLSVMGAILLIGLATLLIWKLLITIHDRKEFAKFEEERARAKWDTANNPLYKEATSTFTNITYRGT", "test": "SPR", "note": "[ ]: non-standard residue; d: D form.", "data": [{"binder": "cyclo(RGD[dY]K)", "note": "[c(RGDyK) peptide]", "values": [{"measurement": "Kd", "result": 17.1, "unit": "µM"}]}]}
